Assay results as given in patent US20050196403A1 (published 2005).
Where “and” joins values, the source holds several entries; their conditions need not be identical. Identical values can stand only once. Each block holds one binder with its values, some of them ahead of it. Non-standard residues stand in square brackets, D forms with d. No end group written: not given here. Abu = CC[C@H](N)C(=O)O

Legend:
HLA-A*3101 = HLA-A*3101 (human); experiment: competition with 125I probe peptide, purified HLA class I
HLA-A*1101 = HLA-A*1101 (human); experiment: as above
HLA-A*6801 = HLA-A*6801 (human); experiment: as above
HLA-A*0301 = HLA-A*0301 (human); experiment: as above
HLA-B*5101 = HLA-B*5101 (Human); experiment: competition vs 125I probe, purified HLA
HLA-B*0702 [1] = biological target: HLA-B*0702 (Human); experiment: competition vs 125I probe, purified HLA
HLA-A*0206 [2] = biological target: HLA-A*0206 (human); experiment: competition with 125I probe peptide, purified HLA class I
HLA-B*5301 = HLA-B*5301 (Human); experiment: competition vs 125I probe, purified HLA
HLA-B*3501 = HLA-B*3501 (Human); experiment: competition vs 125I probe, purified HLA
HLA-B*0702 [3] = biological target: HLA-B*0702 (Human)
HLA-A*0101 = HLA-A*0101 (human); experiment: competition with 125I probe peptide, purified HLA class I
HLA-A*0206 [4] = biological target: HLA-A*0206 (Human); experiment: competition vs 125I probe, purified HLA
HLA-A*0203 = HLA-A*0203 (Human); experiment: competition vs 125I probe, purified HLA
HLA-A*0201 = HLA-A*0201 (human); experiment: competition with 125I probe peptide, purified HLA class I
HLA-B*5401 = HLA-B*5401 (Human); experiment: competition vs 125I probe, purified HLA

Binder: SV[Abu]MGGMNRR [1371.27 SVBMGGMNRR p53.240.V2B3]
- IC50 (HLA-A*3101): 621 nM
- IC50 (HLA-A*1101): 25 nM
- IC50 (HLA-A*6801): 11.4 nM
- IC50 (HLA-A*0301): 1000 nM

Binder: FPPGSTKRAL [48.0196 FPPGSTKRAL (p53)]
- IC50 (HLA-B*5101): 6110 nM
- IC50 (HLA-B*0702 [1]): 0.79 nM

Binder: CTTIHYNYM [1329.04 CTTIHYNYM p53.229]
- IC50 (HLA-A*0206 [2]): 561 nM

Binder: FPALNKMF [48.0055 FPALNKMF (p53.127.F1)]
- IC50 (HLA-B*5301): 6200 nM
- IC50 (HLA-B*3501): 3000 nM
- IC50 (HLA-B*0702 [1]): 0.025 nM

Binder: GTDKSVTCTY [57.0126 GTDKSVTCTY p53.117.D3]
- IC50 (HLA-A*0101): 42.4 nM

Binder: FPGTRVRAI [48.0123 FPGTRVRAI (p53.152.F1)]
- IC50 (HLA-B*5101): 663 nM
- IC50 (HLA-B*0702 [1]): 1.1 nM

Binder: FPQPKKKPI [48.0127 FPQPKKKPI (p53)]
- IC50 (HLA-B*0702 [1]): 0.61 nM

Binder: FPQPKKKPL [48.0128 FPQPKKKPL (p53)]
- IC50 (HLA-B*0702 [1]): 2.3 nM

Binder: BVYSPALNR (B at position 1 is alpha-amino butyric acid (in place of cysteine)) [1371.17 BVYSPALNR p53.124.B1V2R9]
- IC50 (HLA-A*1101): 8.3 nM
- IC50 (HLA-A*6801): 14.8 nM
- IC50 (HLA-A*0301): 25 nM

Binder: KVF[Abu]QLAK [1371.18 KVFBQLAK p53.132.V2B4]
- IC50 (HLA-A*3101): 7500 nM
- IC50 (HLA-A*0301): 846 nM

Binder: FPALNKMFCQL [48.0234 FPALNKMFCQL (p53.127.F1)]
- IC50 (HLA-B*5101): 5500 nM
- IC50 (HLA-B*5401): 500 nM
- IC50 (HLA-B*0702 [1]): 0.052 nM

Next, values leading:

- binding affinity ratio (IC50 of standard peptide / IC50 of test peptide) (HLA-B*0702 [3]): 0.0055 ratio
Binder: KPLDGEYFTL [p53 peptide KPLDGEYFTL (position 321, 10 amino acids)]

- IC50 (HLA-A*0206 [4]): 561 nM
Binder: CTTIHYNYM [p53.229 CTTIHYNYM]

- binding affinity ratio (IC50 of standard peptide / IC50 of test peptide) (HLA-B*0702 [3]): 0.0041 ratio
Binder: TPAAPAPA [p53 peptide TPAAPAPA (position 81, 8 amino acids)]

- IC50 (HLA-A*0203): 83 nM
Binder: HLIRVEGNLRV [p53.193 HLIRVEGNLRV]

- binding affinity ratio (IC50 of standard peptide / IC50 of test peptide) (HLA-B*0702 [3]): 0.007 ratio
Binder: LPENNVLSPL [p53 peptide LPENNVLSPL (position 26, 10 amino acids)]

- binding affinity ratio (IC50 of standard peptide / IC50 of test peptide) (HLA-B*0702 [3]): 0.0038 ratio
Binder: LPSQAMDDL [p53 peptide LPSQAMDDL (position 35, 9 amino acids)]

- IC50 (HLA-A*1101): 200 nM
- IC50 (HLA-A*6801): 2500 nM
Binder: RV[Abu]A[Abu]PGRDRK [1371.31 RVBABPGRDRK p53.273.B3B5K11]

- IC50 (HLA-A*0201): 41.7 nM and 27.8 nM
Binder: LLGRDSFEV [LLGRDSFEV mp53.261]

- binding affinity ratio (IC50 of standard peptide / IC50 of test peptide) (HLA-B*0702 [3]): 0.0028 ratio
Binder: MPEAAPPV [p53 peptide MPEAAPPV (position 66, 8 amino acids)]

- binding affinity ratio (IC50 of standard peptide / IC50 of test peptide) (HLA-B*0702 [3]): 0.0044 ratio
Binder: SPLPSQAM [p53 peptide SPLPSQAM (position 33, 8 amino acids)]
